No end group written: not given here.
Tests used:
[1] = system: fos-like immunoreactivity; test: Fos-like immunoreactivity (FLI) immunohistochemistry in hypothalamus and brainstem after IP injection; type: in vivo, rat; conditions: IP 15 nmol/kg, 90 minutes
Text: The brains were removed and post-fixed overnight in PBF and then transferred to PB-sucrose (20% w/v) overnight. 40 μm coronal sections of brain and brainstem were cut on a freezing microtome and stained for fos-like immunoreactivity (FLI) by the avitin-biotin-peroxidase method. The sections were then mounted on poly-L-lysine-coated slides, dehydrated in increasing concentrations of ethanol (50-100%), delipidated in xylene and coverslipped using DPX mountant. Slides were examined for FLI-positive nuclei using a light microscope (Nikon Eclipse E-800) and images captured using a microimager (Xillix MicroImager). The numbers of FLI-positive nuclei in the hypothalamus and brainstem were counted by an independent member of the research team who was blinded to the experimental groups. The average number of FLI-positive nuclei per section was calculated and expressed as an integer for each animal.

[2] = ICV injection, food intake in 24-h fasted rats (studies 1a, 2a); type: in vivo, rat; conditions: ICV 3 nmol, vs saline
Text: (§1) Animals were handled daily after recovery from surgery until completion of the studies.
(§2) Animals had permanent stainless steel guide cannulas (Plastics One, Roanoke, Va.) stereotactically implanted ICV (intracerebraventricularly) or iPVN (into the hypothalamic paraventricular nucleus).

[3] = iPVN injection, food intake in 24-h fasted rats (studies 1b, 2b); type: in vivo, rat
Protocol: as §1, §2
Therefore, exendin-4 was injected iPVN at a dose of 0.03 nmol.

[4] = target: T1, GLP-1 receptor (Rattus norvegicus, UniProt P32301); test: Coadministration of exendin-(9-39) with GLP-1 or OXM, ICV and iPVN, food intake (study 4); type: in vivo
T1 construct: from tissue; host or cells: rat hypothalamus (membrane preparation)
T1 sequence (P32301 22-463): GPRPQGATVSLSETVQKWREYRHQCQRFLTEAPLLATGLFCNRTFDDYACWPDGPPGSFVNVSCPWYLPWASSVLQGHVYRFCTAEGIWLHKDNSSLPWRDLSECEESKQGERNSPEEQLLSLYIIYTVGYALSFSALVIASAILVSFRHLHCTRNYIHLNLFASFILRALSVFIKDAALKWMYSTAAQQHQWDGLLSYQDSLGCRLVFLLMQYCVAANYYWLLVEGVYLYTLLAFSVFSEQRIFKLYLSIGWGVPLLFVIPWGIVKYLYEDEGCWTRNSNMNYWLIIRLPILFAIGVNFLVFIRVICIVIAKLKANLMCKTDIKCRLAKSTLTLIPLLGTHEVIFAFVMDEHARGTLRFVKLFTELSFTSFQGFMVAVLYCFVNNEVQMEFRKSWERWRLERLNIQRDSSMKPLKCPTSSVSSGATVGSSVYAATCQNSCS

[5] = target: T2, Arcuate nucleus GLP-1 receptors (Rattus norvegicus, UniProt P32301); test: iARC exendin 9-39 prior to IP OXM or GLP-1, 1 hour food intake; type: in vivo
T2 construct: 24-hour fasted rats received an iARC injection of saline or exendin9-39 (5 nmoles); from tissue; host or cells: live rat, hypothalamic arcuate nucleus
T2 sequence (P32301 22-463): T1 sequence (P32301 22-463)
Text: Rats cannulated into the arcuate nucleus were randomised into 6 groups (n=10-12 per group). […] The injection details are described in Table 1 below.

Question: For “CCK: positive control for gastric emptying at the two-hour time-point (DYMGWMDF; ends and bridges not checked; UniProt P06307 96-103, looked up)”, which “FLI staining in the brainstem (NTS, area postrema)” value [1] is on record?
Answer: caused dense staining of FLI

Question: Which results are given for glucagon?
Answer: food intake (refeeding) after ICV injection [2]: failed to affect food intake at any time point; food intake after iPVN injection ([3]; iPVN 1 nmol, any time point): failed to affect food intake at any time point

Question: Which results are given for exendin-(9-39)?
Answer: effect of coadministration on anorectic effects of GLP-1 ([4]; ICV, exendin-(9-39) 30 nmol with GLP-1 3 nmol, ratio 10:1): blocked the anorectic effects of GLP-1; effect of coadministration on anorectic effect of OXM ([4]; ICV, exendin-(9-39) 30 nmol with OXM 3 nmol): attenuation of the anorectic effect of OXM; effect of coinjection on anorectic effects of GLP-1 ([4]; iPVN, exendin-(9-39) 10 nmol with GLP-1 1 nmol): blocked; effect of coinjection on anorectic effects of OXM ([4]; iPVN, exendin-(9-39) 10 nmol with OXM 1 nmol): blocked; effect on anorexia caused by IP administration of OXM ([5]; exendin 9-39 into the ARC, dose printed 300 nmol/kg, IP OXM 30 nmol/kg): blocked; Food intake (g), 1 hour ([5]; iARC exendin 9-39 (5 nmoles) or saline 15 minutes prior to IP OXM (30 nmol/kg), GLP-1 (30 nmol/kg) or saline): 9.0 g; effect on inhibition of food intake by IP GLP-1 ([5]; prior iARC exendin 9-39, IP GLP-1 30 nmol/kg): not affected

Question: With exendin-4 as the substance, how does the “food intake (refeeding) after iPVN injection” value ([3]; iPVN 0.03 nmol) read?
Answer: inhibited reseeding

Reference: US7825091B2, “Modification of feeding behaviour” (Imperial Innovations Limited, priority 2003, dated 2010)
